The values below are quoted from earlier work in PMC7602980 (Biomolecules, 2020).

The series addresses Cx43CT. Particulars: compared with CaM; no reference printed beside the value; Drebrin–Cx43 interaction ref [78]; read-out: binding affinity Drebrin for Cx43CT, as quoted in discussion. From the text: While CaM can be seen as mimicking P ...

B1: Drebrin: developmentally regulated brain protein, linker between Cx43 gap junctions and actin/submembrane cytoskeleton (protein, UniProt Q16643 2-649, looked up)
Drebrin: AGVSFSGHRLELLAAYEEVIREESAADWALYTYEDGSDDLKLAASGEGGLQELSGHFENQKVMYGFCSVKDSQAALPKYVLINWVGEDVPDARKCACASHVAKVAEFFQGVDVIVNASSVEDIDAGAIGQRLSNGLARLSSPVLHRLRLREDENAEPVGTTYQKTDAAVEMKRINREQFWEQAKKEEELRKEEERKKALDERLRFEQERMEQERQEQEERERRYREREQQIEEHRRKQQTLEAEEAKRRLKEQSIFGDHRDEEEETHMKKSESEVEEAAAIIAQRPDNPREFFKQQERVASASAGSCDVPSPFNHRPGSHLDSHRRMAPTPIPTRSPSDSSTASTPVAEQIERALDEVTSSQPPPLPPPPPPAQETQEPSPILDSEETRAAAPQAWAGPMEEPPQAQAPPRGPGSPAEDLMFMESAEQAVLAAPVEPATADATEIHDAADTIETDTATADTTVANNVPPAATSLIDLWPGNGEGASTLQGEPRAPTPPSGTEVTLAEVPLLDEVAPEPLLPAGEGCATLLNFDELPEPPATFCDPEEVEGESLAAPQTPTLPSALEELEQEQEPEPHLLTNGETTQKEGTQASEGYFSQSQEEEFAQSEELCAKAPPPVFYNKPPEIDITCWDADPVPEEEEGFEGGD
For B1, the Kd was around 300 µM.
